Test results from patent US20240376198A1 (INHIBRX, published 2024).
Where a chain is given by its changes, count along the chain named. Where two headings read alike, the source gives them in different places.

T1: mouse NKp46 (mouse, UniProt Q8C567 17-325)
T1 construct: whole, on cells
T1 sequence (looked up): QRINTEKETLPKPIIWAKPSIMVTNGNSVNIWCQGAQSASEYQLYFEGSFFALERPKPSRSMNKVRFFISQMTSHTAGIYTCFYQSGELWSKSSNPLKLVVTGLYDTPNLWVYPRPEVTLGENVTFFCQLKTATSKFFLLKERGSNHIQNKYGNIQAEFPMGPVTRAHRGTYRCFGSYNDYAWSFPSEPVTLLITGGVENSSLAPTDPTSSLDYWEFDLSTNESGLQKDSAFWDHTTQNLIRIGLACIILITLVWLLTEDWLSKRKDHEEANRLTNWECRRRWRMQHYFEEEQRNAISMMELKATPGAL

B1: NKp46-hz5D7v17-Fc (Fc fusion)
chain: EVQLVESGGGEVQPGGSLRLSCAASGRTFASAAMGWFRQAPGKEREFVAAISRSDDTYYAESVKGRFTISRDNAKNTVYLQMSSLRAEDTAVYYCAAVVPTYGSNIYVHSAAYNYWGQGTLVTVRPDKTHTCPPCPAPGGPSVFLFPPKPKDTLMISRTPEVTCVVVDVSHEDPEVKFNWYVDGVEVHNAKTKPREEQYNSTYRVVSVLTVLHQDWLNGKEYKCKVSNKALPAPIEKTISKAKGQPREPQVYTLPPSRDELTKNQVSLTCLVKGFYPSDIAVEWESNGQPENNYKTTPPVLDSDGSFFLYSKLTVDKSRWQQGNVFSCSVMHEALHNHYTQKSLSLSPG
B2: NKp46-hz5D7v3-Fc* (Fc fusion)
chain: EVQLVESGGGEVQPGGSLRLSCAASGRTFASAAMGWFRQAPGKEREFVAAISRSDDTYYAESVKGRFTISRDNAKNTVYLQMSSLRAEDTAVYYCAAVVPTYGNNIYVHSAAYNYWGQGTLVTVKPGGGGPSVFLFPPKPKDTLMISRTPEVTCVVVDVSHEDPEVKFNWYVDGVEVHNAKTKPREEQYNSTYRVVSVLTVLHQDWLNGKEYKCKVSNKALPAPIEKTISKAKGQPREPQVYTLPPSRDELTKNQVSLTCLVKGFYPSDIAVEWESNGQPENNYKTTPPVLDSDGSFFLYSKLTVDKSRWQQGNVFSCSVMHEALHNHYTQKSLSLSPG
notes: VHH-Fc fusion with an IgG1 Fc lacking a hinge (Fc*); also called NKp46-bz5D7v3-Fc*
B3: NKp46-hz5D7v11-Fc* (Fc fusion)
chain: B2 chain with E61D, N104S, H109Y
notes: VHH-Fc fusion with an IgG1 Fc lacking a hinge (Fc*)
B4: NKp46-hz5D7v14-Fc* (Fc fusion)
chain: B2 chain with N104S, N105S
notes: as for B3

Columns and labels:
[1] = biological target: T2, human NKp46 (human, UniProt O76036 22-304); assay: flow cytometry, HEK293F cells transfected with human NKp46
T2 construct: also called CD335; NCR1
T2 sequence (O76036 22-304 Q82K): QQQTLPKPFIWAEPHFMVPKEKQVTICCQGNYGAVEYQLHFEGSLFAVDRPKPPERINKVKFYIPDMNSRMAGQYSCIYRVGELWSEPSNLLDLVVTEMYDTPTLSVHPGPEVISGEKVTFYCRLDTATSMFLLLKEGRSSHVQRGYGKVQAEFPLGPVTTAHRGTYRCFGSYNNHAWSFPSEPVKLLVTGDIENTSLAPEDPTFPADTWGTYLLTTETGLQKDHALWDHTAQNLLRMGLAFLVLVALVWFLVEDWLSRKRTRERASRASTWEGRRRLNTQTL
Procedure: (§1) Binding of NKp46-binding polypeptides formatted as VHH-Fc fusion proteins was assessed by flow cytometry. An IgG1-Fc lacking a hinge, or a homodimeric Fc (FIG. 1I-1J) was used (the Fc lacking a hinge is annotated as Fc*). HEK293F cells were transiently transfected with a plasmid encoding full-length human NKp46, cynomolgus NKp46, or mouse NKp46, followed by an IRES and GFP. Transfected cells expressing NKp46 and GFP were used to measure binding of the polypeptides. The transfected cells were plated in a 96-well plate at 30,000 cells per well in FACS buffer (PBS, 1% BSA, 0.1% NaN₃, pH 7.4). Untransfected HEK293F cells were used as a NKp46-negative control and plated at 30,000 cells per well in a separate plate. Test polypeptides were then diluted to two times the final concentration of 1000 nM, and a 3-, 4-, or 5-fold, serial dilution was made. A final column was left with only FACS buffer as a secondary-only control. Test article dilutions were added to an equal volume of cells, and assay plates were incubated for 30 minutes at 4° C. After washing twice with 150 μL. of FACS buffer per well, the cells were resuspended in FACS buffer with α-hFc-647 secondary diluted 1:1000-2000. Assay plates were then left to incubate at 4° C. for 20-30 minutes. After one additional wash with 150 μL of FACS buffer, bound antibody was detected by flow cytometry. Flow cytometric detection was performed on an Intellicyt iQue Plus or Accuri iQue. NKp46 transfected cells were gated on as GFP positive, and polypeptide binding was measured as median fluorescence at 647 nm.

[2] = biological target: T2, human NKp46; assay: flow cytometry on HEK-293F cells transfected with full-length human NKp46, bivalent VHH with homodimeric Fc, anti-hFc-647 secondary
Procedure: as §1, with “After washing twice with 150 μL. of FACS buffer per well, the cells were resuspended in FACS buffer with α-hFc-647 secondary diluted 1:1000-2000. Assay plates were then left to incubate at 4° C. for 20-30 minutes.” left out, “Flow cytometric detection was performed on an Intellicyt iQue Plus or Accuri iQue.” left out

[3] = biological target: T1, mouse NKp46; assay: flow cytometry, HEK293F cells transfected with mouse NKp46
Procedure: as §1

[4] = biological target: T2, human NKp46; assay: flow cytometry, HEK293F cells transfected with human NKp46; Table 3 experiment; HEK-293 transfected with human NKp46
Procedure: as §1, with “After washing twice with 150 μL. of FACS buffer per well, the cells were resuspended in FACS buffer with α-hFc-647 secondary diluted 1:1000-2000. Assay plates were then left to incubate at 4° C. for 20-30 minutes.” left out, “Flow cytometric detection was performed on an Intellicyt iQue Plus or Accuri iQue.” left out

[5] = biological target: T3, cynomolgus NKp46 (cynomolgus monkey, UniProt Q95JB9 22-306); assay: flow cytometry, HEK293F cells transfected with cyno NKp46
T3 construct: also called cyno NKp46; cynomolgus monkey NKp46
T3 sequence (Q95JB9 22-306 limits assumed): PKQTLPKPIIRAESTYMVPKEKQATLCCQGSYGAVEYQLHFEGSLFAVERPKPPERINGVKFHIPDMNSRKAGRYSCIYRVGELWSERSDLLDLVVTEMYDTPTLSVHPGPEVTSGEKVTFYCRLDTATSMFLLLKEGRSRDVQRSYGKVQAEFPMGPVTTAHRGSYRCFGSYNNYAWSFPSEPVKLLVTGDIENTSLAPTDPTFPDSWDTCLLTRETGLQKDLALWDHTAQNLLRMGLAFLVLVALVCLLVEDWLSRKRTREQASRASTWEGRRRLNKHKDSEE
Procedure: as §1

[6] = biological target: T1, mouse NKp46; assay: flow cytometry, HEK293F cells transfected with mouse NKp46; remark: listed apart in the source
Procedure: as §1

[7] = biological target: T2, human NKp46; assay: flow cytometry, HEK293F cells transfected with human NKp46; remark: listed apart in the source
Procedure: as §1

[8] = biological target: T3, cynomolgus NKp46; assay: flow cytometry, HEK293F cells transfected with cyno NKp46; remark: listed apart in the source
Procedure: as §1

[9] = biological target: T1, mouse NKp46; assay: flow cytometry on HEK-293F cells transfected with full-length mouse NKp46, anti-hFc-647 secondary
Procedure: as §1, with “After washing twice with 150 μL. of FACS buffer per well, the cells were resuspended in FACS buffer with α-hFc-647 secondary diluted 1:1000-2000. Assay plates were then left to incubate at 4° C. for 20-30 minutes.” left out, “Flow cytometric detection was performed on an Intellicyt iQue Plus or Accuri iQue.” left out

Binder	Kd [1] [pM]	EC50 (read off the curve) [2] [pM]	Bmax (MFI) [3] [MFI]	Kd [3] [pM]	Kd [4] [pM]	Bmax (MFI) [1] [MFI]	Bmax (MFI) [5] [MFI]	Kd [5] [pM]	Bmax (MFI) [6] [MFI]	Kd [6] [pM]	Bmax (MFI) [7] [MFI]	Kd [7] [pM]	Bmax (MFI) [8] [MFI]	Kd [8] [pM]	EC50 (read off the curve) [9] [pM]
B1	295	~300	–	–	–	–	–	–	–	–	–	–	–	–	–
B2	–	–	1.17e+06	685	511	1.27e+06	51800	726	56500	313	149000	177	19800	773	–
B3	189	–	723000	1700	–	1.05e+06	52300	1840	–	–	–	–	–	–	~2000
B4	–	–	–	–	–	–	–	–	11300	6510	138000	158	14300	252	~8000
